Measured values taken from patent publication US20240301043A1 (Q32 BIO, published 2024).
Like-named read-outs stand apart in the source and are kept apart here.

Experiments:
human C3d [1] = molecular target: T1, human C3d (human, UniProt P01024 1002-1303); test: ELISA, human C3d coated on plate
T1 construct: domain: C3d; also called C3d antigen

human C3d [2] = molecular target: T1, human C3d; test: SPR (Biacore 3000), human C3d amine-coupled to CM5 chip, construct as analyte
human C3d [3] = molecular target: T1, human C3d; test: ELISA, human C3d coated on plate; remark: listed apart in the source
human C3d [4] = molecular target: T1, human C3d; test: ELISA, human C3d coated on plate; remark: listed apart in the source

T1 sequence (P01024 1002-1303 limits assumed): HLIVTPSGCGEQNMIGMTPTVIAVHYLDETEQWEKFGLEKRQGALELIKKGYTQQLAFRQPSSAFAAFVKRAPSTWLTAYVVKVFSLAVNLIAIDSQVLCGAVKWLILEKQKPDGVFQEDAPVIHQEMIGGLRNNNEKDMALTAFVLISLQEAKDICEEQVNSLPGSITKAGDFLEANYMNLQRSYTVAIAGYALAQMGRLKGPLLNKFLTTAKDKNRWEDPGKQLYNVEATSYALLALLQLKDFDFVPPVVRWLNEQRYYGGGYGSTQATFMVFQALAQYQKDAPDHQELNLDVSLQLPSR

B1: Exemplary anti-C3d construct 74 (antibody, V domains shown)
VH: QVQLVQSGAEVKKPGASVKVSCKASGYTFTNYYINWVRQAPGQGLEWIGVINPYNGGTSYNQKFKGRATLTVDTSTSTAYMELSSLRSEDTAVYFCSSPYWGQGTLVTVSS
VL: DVVMTQSPLSLPVTLGQPASISCKSSQSLLDSDGKTYLNWFQQRPGQSPRRLIYLVSKLDSGVPDRFSGSGSGTDFTLKISRVEAEDVGVYYCWQGTHFPRTFGGGTKVEIK
notes: Humanized 3d8b VH4 / VK3; also called Exemplary construct 74
For B1, the EC50 (human C3d [1]) was 0.017 nM and the Kd (human C3d [2]) was 1.34 nM.

B2: Exemplary anti-C3d construct 93 (antibody, human IgG4 S228P, kappa, V domains shown)
VH: QVQLVQSGAEVKKPGASVKVSCKASGYTFTNYYINWVRQAPGQGLEWMGVINPYSGGTSYNQKFKGRVTMTVDTSTSTAYMELSSLRSEDTAVYFCSSPYWGQGTLVTVSS
VL: DVVMTQSPLSLPVTLGQPASISCKSSQSLLDSDGKTYLNWFQQRPGQSPRRLIYLVSKLDSGVPDRFSGSGSGTDFTLKISRVEAEDVGVYYCWQGTHFPRTFGGGTKVEIKR
notes: also called Exemplary construct 93
Work on B2 yielded an EC50 (human C3d [3]) of 0.02 nM and a Kd (human C3d [2]) of 10.2 nM.

B3: Exemplary anti-C3d construct 78 (antibody, V domains shown)
VH: QVQLVQSGAEVKKPGASVKVSCKASGYTFTNYYINWVRQAPGQGLEWIGVINPYSGGTSYNQKFKGRATLTVDTSTSTAYMELSSLRSEDTAVYFCSSPYWGQGTLVTVSS
VL: DVVMTQSPLSLPVTLGQPASISCKSSQSLLDSDGKTYLNWFQQRPGQSPRRLIYLVSKLDSGVPDRFSGSGSGTDFTLKISRVEAEDVGVYYCWQGTHFPRTFGGGTKVEIK
notes: Humanized 3d8b VH4 N54S / VK3; also called Exemplary construct 78
B3 showed an EC50 (human C3d [1]) of 0.018 nM.

B4: Exemplary anti-C3d construct 75 (antibody, V domains shown)
VH: QVQLVQSGAEVKKPGASVKVSCKASGYTFTNYYINWVRQAPGQGLEWMGVINPYNGGTSYNQKFKGRVTMTVDTSTSTAYMELSSLRSEDTAVYFCSSPYWGQGTLVTVSS
VL: DVVMTQSPLSLPVTLGQPASISCKSSQSLLDSDGKTYLNWFQQRPGQSPRRLIYLVSKLDSGVPDRFSGSGSGTDFTLKISRVEAEDVGVYYCWQGTHFPRTFGGGTKVEIK
notes: Humanized 3d8b VH5 / VK3; also called Exemplary construct 75
B4 showed an EC50 (human C3d [1]) of 0.029 nM and a Kd (human C3d [2]) of 1.63 nM.

B5: Exemplary anti-C3d construct 86 (antibody, human IgG4 S228P, kappa)
heavy: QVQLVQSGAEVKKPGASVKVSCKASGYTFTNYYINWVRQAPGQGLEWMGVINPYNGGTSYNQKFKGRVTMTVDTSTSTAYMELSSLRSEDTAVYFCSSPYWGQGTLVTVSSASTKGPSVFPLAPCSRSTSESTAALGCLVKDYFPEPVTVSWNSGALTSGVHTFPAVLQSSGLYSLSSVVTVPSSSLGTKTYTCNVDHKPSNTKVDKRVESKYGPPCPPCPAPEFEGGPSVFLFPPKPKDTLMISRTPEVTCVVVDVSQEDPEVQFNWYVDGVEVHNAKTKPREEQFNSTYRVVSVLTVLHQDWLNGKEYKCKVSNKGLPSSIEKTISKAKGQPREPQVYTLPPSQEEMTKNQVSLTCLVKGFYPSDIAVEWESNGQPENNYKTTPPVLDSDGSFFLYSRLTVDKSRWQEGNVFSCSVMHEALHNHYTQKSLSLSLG
light: DVVMTQSPLSLPVTLGQPASISCKSSQSLLDSDGKTYLNWFQQRPGQSPRRLIYLVSKLDSGVPDRFSGSGSGTDFTLKISRVEAEDVGVYYCWQGTHFPRTFGGGTKVEIKRTVAAPSVFIFPPSDEQLKSGTASVVCLLNNFYPREAKVQWKVDNALQSGNSQESVTEQDSKDSTYSLSSTLTLSKADYEKHKVYACEVTHQGLSSPVTKSFNRGEC
notes: HC1 (VH5) humanized IgG4 S228P/L235E; LC1 (Vk3) humanized kappa; also called Exemplary construct 86
In the case of B5, the EC50 (human C3d [1]) is reported as 0.03 nM, the EC50 (human C3d [3]) is reported as 0.03 nM and the Kd (human C3d [2]) is reported as 14.7 nM.

B6: Exemplary anti-C3d construct 77 (antibody, V domains shown)
VH: QVQLVQSGAEVKKPGASVKVSCKASGYTFTNYYINWVRQAPGQGLEWMGVINPYHGGTSYNQKFKGRVTMTVDTSTSTAYMELSSLRSEDTAVYFCSSPYWGQGTLVTVSS
VL: DVVMTQSPLSLPVTLGQPASISCKSSQSLLDSDGKTYLNWFQQRPGQSPRRLIYLVSKLDSGVPDRFSGSGSGTDFTLKISRVEAEDVGVYYCWQGTHFPRTFGGGTKVEIK
notes: Humanized 3d8b VH5 N54H / VK3; also called Exemplary construct 77
Binder B6 has an EC50 (human C3d [1]) of 0.011 nM.

B7: Exemplary anti-C3d construct 79 (antibody, V domains shown)
VH: QVQLVQSGAEVKKPGASVKVSCKASGYTFTNYYINWVRQAPGQGLEWMGVINPYSGGTSYNQKFKGRVTMTVDTSTSTAYMELSSLRSEDTAVYFCSSPYWGQGTLVTVSS
VL: DVVMTQSPLSLPVTLGQPASISCKSSQSLLDSDGKTYLNWFQQRPGQSPRRLIYLVSKLDSGVPDRFSGSGSGTDFTLKISRVEAEDVGVYYCWQGTHFPRTFGGGTKVEIK
notes: Humanized 3d8b VH5 N54S / VK3; also called Exemplary construct 79
Binder B7 has an EC50 (human C3d [1]) of 0.02 nM.

B8: Exemplary anti-C3d construct 76 (antibody, V domains shown)
VH: QVQLVQSGAEVKKPGASVKVSCKASGYTFTNYYINWVRQAPGQGLEWIGVINPYHGGTSYNQKFKGRATLTVDTSTSTAYMELSSLRSEDTAVYFCSSPYWGQGTLVTVSS
VL: DVVMTQSPLSLPVTLGQPASISCKSSQSLLDSDGKTYLNWFQQRPGQSPRRLIYLVSKLDSGVPDRFSGSGSGTDFTLKISRVEAEDVGVYYCWQGTHFPRTFGGGTKVEIK
notes: Humanized 3d8b VH4 N54H / VK3; also called Exemplary construct 76
B8 gave an EC50 (human C3d [1]) of 0.018 nM.

B9: Exemplary anti-C3d construct 87 (antibody, human IgG4 S228P, kappa)
heavy: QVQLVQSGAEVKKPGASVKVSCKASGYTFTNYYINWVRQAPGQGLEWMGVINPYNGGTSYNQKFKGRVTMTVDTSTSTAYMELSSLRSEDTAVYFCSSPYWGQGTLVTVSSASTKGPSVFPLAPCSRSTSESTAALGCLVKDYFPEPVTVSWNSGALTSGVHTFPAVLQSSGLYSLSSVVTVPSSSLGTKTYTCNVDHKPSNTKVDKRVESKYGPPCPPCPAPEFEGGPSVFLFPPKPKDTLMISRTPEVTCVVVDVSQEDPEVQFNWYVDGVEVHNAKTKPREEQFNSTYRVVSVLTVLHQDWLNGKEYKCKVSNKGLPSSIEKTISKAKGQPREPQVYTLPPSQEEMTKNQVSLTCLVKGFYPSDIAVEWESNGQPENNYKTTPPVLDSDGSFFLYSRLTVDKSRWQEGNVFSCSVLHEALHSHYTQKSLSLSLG
light: DVVMTQSPLSLPVTLGQPASISCKSSQSLLDSDGKTYLNWFQQRPGQSPRRLIYLVSKLDSGVPDRFSGSGSGTDFTLKISRVEAEDVGVYYCWQGTHFPRTFGGGTKVEIKRTVAAPSVFIFPPSDEQLKSGTASVVCLLNNFYPREAKVQWKVDNALQSGNSQESVTEQDSKDSTYSLSSTLTLSKADYEKHKVYACEVTHQGLSSPVTKSFNRGEC
notes: also called Exemplary construct 87
B9 was tested, and the EC50 (human C3d [3]) was 0.02 nM and the Kd (human C3d [2]) was 7.57 nM.

B10: Exemplary Fusion Construct 99 (other)
heavy: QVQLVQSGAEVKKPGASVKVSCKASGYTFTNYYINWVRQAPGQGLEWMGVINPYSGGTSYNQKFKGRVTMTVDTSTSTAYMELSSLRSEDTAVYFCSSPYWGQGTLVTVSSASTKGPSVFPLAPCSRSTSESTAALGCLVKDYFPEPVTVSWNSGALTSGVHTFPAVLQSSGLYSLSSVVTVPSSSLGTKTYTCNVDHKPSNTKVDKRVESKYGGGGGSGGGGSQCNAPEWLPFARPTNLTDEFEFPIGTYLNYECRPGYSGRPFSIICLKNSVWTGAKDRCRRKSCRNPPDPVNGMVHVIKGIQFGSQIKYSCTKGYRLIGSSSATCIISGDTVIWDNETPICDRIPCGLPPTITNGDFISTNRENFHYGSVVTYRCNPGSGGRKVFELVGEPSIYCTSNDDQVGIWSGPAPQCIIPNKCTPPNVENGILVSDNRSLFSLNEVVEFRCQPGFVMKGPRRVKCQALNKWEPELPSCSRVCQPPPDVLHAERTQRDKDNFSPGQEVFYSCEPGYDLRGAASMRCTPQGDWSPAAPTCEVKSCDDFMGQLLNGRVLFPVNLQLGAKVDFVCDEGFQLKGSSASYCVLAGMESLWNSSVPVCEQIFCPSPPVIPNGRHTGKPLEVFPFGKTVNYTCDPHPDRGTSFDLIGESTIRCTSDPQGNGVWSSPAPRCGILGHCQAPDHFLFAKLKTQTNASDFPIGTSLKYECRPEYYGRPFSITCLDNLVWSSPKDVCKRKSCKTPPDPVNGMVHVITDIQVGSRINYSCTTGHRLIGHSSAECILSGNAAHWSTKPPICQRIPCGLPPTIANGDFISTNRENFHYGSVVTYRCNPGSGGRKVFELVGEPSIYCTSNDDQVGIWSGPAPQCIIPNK
light: DVVMTQSPLSLPVTLGQPASISCKSSQSLLDSDGKTYLNWFQQRPGQSPRRLIYLVSKLDSGVPDRFSGSGSGTDFTLKISRVEAEDVGVYYCWQGTHFPRTFGGGTKVEIKRTVAAPSVFIFPPSDEQLKSGTASVVCLLNNFYPREAKVQWKVDNALQSGNSQESVTEQDSKDSTYSLSSTLTLSKADYEKHKVYACEVTHQGLSSPVTKSFNRGEC
notes: Order chain, linker, modulator follows claim 321
B10 gave an EC50 (human C3d [3]) of 1.54 nM.

B11: Exemplary anti-C3d construct 55 (antibody, mouse IgG1, kappa, V domains shown)
VH: EVQLQQSGPVLVKPGASVKMSCKASGYTFTAYYMNWVRQSHGKSLEWIGVINPYNGGTSYNQKFKGKATLTVDKSSSTAYMELNSLTSEDSAVYYCSSPYWGQGTSVTVSS
VL: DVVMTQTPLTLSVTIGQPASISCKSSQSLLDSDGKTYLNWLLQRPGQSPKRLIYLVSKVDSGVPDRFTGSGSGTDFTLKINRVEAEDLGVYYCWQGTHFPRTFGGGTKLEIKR
notes: also called Exemplary construct 55
B11 was tested, and the EC50 (human C3d [4]) was 0.24 nM.

B12: Exemplary anti-C3d construct 56 (Fab) (Fab, V domains shown)
VH: EVQLQQSGPVLVKPGASVKMSCKASGYTFTAYYMNWVRQSHGKSLEWIGVINPYNGGTSYNQKFKGKATLTVDKSSSTAYMELNSLTSEDSAVYYCSSPYWGQGTSVTVSS
VL: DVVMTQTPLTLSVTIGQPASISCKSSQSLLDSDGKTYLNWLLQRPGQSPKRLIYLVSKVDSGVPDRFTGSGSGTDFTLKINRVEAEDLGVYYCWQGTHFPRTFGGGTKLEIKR
notes: also called Exemplary construct 56
With B12 the EC50 (human C3d [4]) was 0.55 nM and the Kd (human C3d [2]) was 0.91 nM.

B13: Exemplary anti-C3d construct 34 (antibody, mouse IgG1, kappa, V domains shown)
VH: EVQLQQSGPVLVKPGASVKMSCKASGYTFTAYYMNWVRQSHGKSLEWIGVINPYNGGTSYNQKFKGKATLTVDKSSSTAYMELNSLTSEDSAVYYCSSPYWGQGTSVTVSS
VL: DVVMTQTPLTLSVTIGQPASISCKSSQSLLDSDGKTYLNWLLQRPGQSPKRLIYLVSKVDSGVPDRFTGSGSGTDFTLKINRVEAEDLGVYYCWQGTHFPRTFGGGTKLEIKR
notes: muHC2 murine IgG1 heavy chain and muLC2 murine kappa light chain; also called Exemplary construct 34
B13 showed an EC50 (human C3d [4]) of 0.32 nM and a Kd (human C3d [2]) of 0.888 nM.
